The text below walks through data of US20130337438A1 (JAPAN HEALTH SCIENCES FOUNDATION, published 2013).

For one assay, the target named is T1, HPV35 L1/L2-capsid (human papillomavirus type 35, UniProt P27234 1-469; P27232 1-502).
T1 construct: Capsid of co-expressed L1 and L2 from 293FT cells; The pseudovirus is the same capsid with a reporter plasmid; also called L1/L2-capsid of type 35; HPV35 pseudovirus
T1 sequence 1: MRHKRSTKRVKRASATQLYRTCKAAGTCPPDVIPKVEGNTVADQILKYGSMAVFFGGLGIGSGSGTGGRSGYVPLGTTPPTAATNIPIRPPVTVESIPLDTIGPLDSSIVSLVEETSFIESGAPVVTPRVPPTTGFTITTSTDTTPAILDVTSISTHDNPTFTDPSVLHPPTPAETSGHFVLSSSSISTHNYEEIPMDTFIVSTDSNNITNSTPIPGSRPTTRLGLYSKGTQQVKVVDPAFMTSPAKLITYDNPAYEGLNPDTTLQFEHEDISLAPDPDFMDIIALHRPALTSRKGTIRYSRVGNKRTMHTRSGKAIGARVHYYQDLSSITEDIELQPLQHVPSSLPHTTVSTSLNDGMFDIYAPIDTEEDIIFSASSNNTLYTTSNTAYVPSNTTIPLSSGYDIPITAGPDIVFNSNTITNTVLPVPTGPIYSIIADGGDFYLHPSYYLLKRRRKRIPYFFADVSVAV
T1 sequence 2: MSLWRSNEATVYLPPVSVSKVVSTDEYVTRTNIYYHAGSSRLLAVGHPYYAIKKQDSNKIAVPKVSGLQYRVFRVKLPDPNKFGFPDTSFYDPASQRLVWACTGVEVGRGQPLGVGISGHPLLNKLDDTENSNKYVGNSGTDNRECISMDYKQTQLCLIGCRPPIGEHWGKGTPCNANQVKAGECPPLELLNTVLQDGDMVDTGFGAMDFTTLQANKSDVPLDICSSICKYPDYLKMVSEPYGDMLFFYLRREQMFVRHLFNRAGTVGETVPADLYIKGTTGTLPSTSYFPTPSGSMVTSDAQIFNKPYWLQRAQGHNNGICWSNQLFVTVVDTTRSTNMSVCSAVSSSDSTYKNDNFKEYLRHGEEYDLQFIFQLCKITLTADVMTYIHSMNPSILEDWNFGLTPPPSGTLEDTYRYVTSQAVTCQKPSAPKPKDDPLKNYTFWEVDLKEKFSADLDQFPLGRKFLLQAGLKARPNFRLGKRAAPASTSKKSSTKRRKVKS
In words: ELISA on immobilized L1/L2-capsid. In general terms: ELISA stands for enzyme-linked immunosorbent assay.

The target of another assay is T2, HPV51 L1/L2-capsid (human papillomavirus type 51, UniProt P26539 1-468; P26536 1-504).
T2 construct: Capsid of co-expressed L1 and L2 from 293FT cells; The pseudovirus is the same capsid with a reporter plasmid; also called L1/L2-capsid of type 51; HPV51 pseudovirus
T2 sequence 1: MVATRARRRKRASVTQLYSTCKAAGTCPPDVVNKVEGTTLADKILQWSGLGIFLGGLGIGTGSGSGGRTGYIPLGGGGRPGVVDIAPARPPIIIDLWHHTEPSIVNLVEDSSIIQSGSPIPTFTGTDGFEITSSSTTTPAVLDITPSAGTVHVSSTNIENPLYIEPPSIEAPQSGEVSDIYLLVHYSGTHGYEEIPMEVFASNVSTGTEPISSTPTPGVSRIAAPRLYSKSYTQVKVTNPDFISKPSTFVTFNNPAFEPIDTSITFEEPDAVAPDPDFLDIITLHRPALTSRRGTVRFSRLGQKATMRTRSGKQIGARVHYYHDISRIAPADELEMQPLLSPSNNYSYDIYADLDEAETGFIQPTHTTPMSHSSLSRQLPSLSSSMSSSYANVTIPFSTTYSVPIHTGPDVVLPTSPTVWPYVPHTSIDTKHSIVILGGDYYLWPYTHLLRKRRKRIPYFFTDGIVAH
T2 sequence 2: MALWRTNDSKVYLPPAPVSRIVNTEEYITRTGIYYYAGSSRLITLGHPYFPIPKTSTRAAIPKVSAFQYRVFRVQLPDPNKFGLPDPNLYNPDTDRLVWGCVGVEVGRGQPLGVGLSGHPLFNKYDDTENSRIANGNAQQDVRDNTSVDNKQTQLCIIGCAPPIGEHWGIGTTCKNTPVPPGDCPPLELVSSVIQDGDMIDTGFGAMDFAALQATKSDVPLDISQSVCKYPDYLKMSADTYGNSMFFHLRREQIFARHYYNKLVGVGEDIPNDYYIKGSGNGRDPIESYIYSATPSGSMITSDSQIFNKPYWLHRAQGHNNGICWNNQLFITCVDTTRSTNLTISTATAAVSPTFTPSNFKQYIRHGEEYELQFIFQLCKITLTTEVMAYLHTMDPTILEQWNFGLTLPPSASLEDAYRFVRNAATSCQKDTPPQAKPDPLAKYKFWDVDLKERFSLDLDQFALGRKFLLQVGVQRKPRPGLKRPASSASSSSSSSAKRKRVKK
In words: ELISA on immobilized L1/L2-capsid, ascites 1:100.

B1: monoclonal antibody 13B (antibody, V domains shown)
VH: DVQLQESGPGLVKPSQSLSLSCTVTGYSITSDSAWNWIRQFPGNKLEWMGYITFSGSTNYNPSLKSRLSITRDTSKNQFFLQLNSVTTEDTATYYCTGPFLDYWGQGTTLTVSS
VL: DVVMTQTPLSLPVSLGDQATISCRSSLSLVLSNRITYLQWYLQKPGQSPKLLIYKVSNRFSGVPDRFSGSGSGTDFTLKISRVEAEDLGVYFCSQSSHFPWTFGGGTKLEIKR
notes: Used as mouse ascites or as antibody purified from ascites; also called Mouse-Mouse hybridoma 13B (FERM BP-11304)
On to B1, for which the binding result with HPV35 L1/L2-capsid was “no binding (tested: ascites diluted 1:100)”.

B2: monoclonal antibody 24B (antibody, V domains shown)
VH: EVQLQQSGTVLARPGASVKMSCKASVYSFPSNWMHWVKQRPGQGLEWIGAIYPGTGATRYNQKFKDKAKLTAVTSADTAYMELSSLTDEDSAVYYCTGYSLYWGQGTILTVSS
VL: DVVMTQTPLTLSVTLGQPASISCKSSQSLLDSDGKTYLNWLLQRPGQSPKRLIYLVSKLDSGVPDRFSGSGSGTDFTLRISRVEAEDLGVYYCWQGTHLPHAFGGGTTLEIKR
notes: Used as mouse ascites or as antibody purified from ascites; also called Mouse-Mouse hybridoma 24B (FERM BP-11305)
As for B2, the binding result with HPV51 L1/L2-capsid is on record as “binds”.
